Where a chain is given by its changes, count along the chain named. Numbers in names are those of the source.
Columns and labels:
[1] = target: B2Ar-heLOV-TEVcs-Gal4-V5 (SPARK transcription factor component) (UniProt P07550); assay: cell-based or functional assay
[2] = target: CD4-HA-CIBN-2xMKII-NNES-heLOV-GAL4 (FLARE transcription factor component) (Arabidopsis thaliana); assay: cell-based or functional assay
[3] = target: MBP-TEVcs(ENLYFQ/S)-eGFP [MBP: P0AEX9]; assay: Michaelis-Menten fit of the in-gel fluorescence cleavage assay, purified protease with the substrate titrated; the filing defines affinity as Km
[4] = target: MBP-TEVcs(ENLYFQ/S)-eGFP [MBP: P0AEX9]
[5] = target: MBP-TEVcs(ENLYFQ/M)-eGFP [MBP: P0AEX9]

Molecule: HA-arrestin-TEVΔ/S153N (SPARK protease component with uTEV1Δ) (enzyme)
- SPARK mCherry reporter, +/-agonist signal ratio [1]: 20.7

Molecule: eGFP-CaM-TEVΔ/S219V + S153N (FLARE protease component with uTEV1Δ) (enzyme)
- FLARE mCherry reporter, high/low Ca+2 signal ratio [2]: 12
- FLARE mCherry reporter, signal-to-background ratio [2]: 12.2

B1: uTEV3, full-length (HIS6-MBP-TEV I138T S153N T180A, S219V) (protein)
chain: GESLFKGPRDYNPISSTICHLTNESDGHTTSLYGIGFGPFIITNKHLFRRNNGTLLVQSLHGVFKVKNTTTLQQHLIDGRDMIIIRMPKDFPPFPQKLKFREPQREERICLVTTNFQTKSMSSMVSDTSCTFPSSDGTFWKHWIQTKDGQCGNPLVSTRDGFIVGIHSASNFTNTNNYFASVPKNFMELLTNQEAQQWVSGWRLNADSVLWGGHKVFMVKPEEPFQPVKEATQLMNELVYSQ
- fold improvement of Km against wild-type TEV [3]: Km improved by 3-fold
- kcat/Km, fold against wild-type TEV [4]: a 2.8-fold increase in kcat/Km

B2: wild-type TEVΔ (TEVΔ-S219V), purified with His tag from bacteria (protein)
chain: HHHHHHGESLFKGPRDYNPISSTICHLTNESDGHTTSLYGIGFGPFIITNKHLFRRNNGTLLVQSLHGVFKVKNTTTLQQHLIDGRDMIIIRMPKDFPPFPQKLKFREPQREERICLVTTNFQTKSMSSMVSDTSCTFPSSDGIFWKHWIQTKDGQCGSPLVSTRDGFIVGIHSASNFTNTNNYFTSVPKNFMELLTNQEAQQWVSGWRLNADSVLWGGHKVFMV
- turnover rate (kapp) [5]: 0.01 s⁻¹

B3: uTEV2Δ (TEVΔ/S219V + T30A + S153N), purified with His tag from bacteria (protein)
chain: B2 chain with T36A, S159N
- turnover rate (kapp) [5]: 0.062 s⁻¹
- turnover rate (kapp), fold against wild-type TEVΔ [5]: 5.4- and 6.2-fold higher than wild-type

B4: uTEV1Δ (TEVΔ/S219V + S153N), purified with His tag from bacteria (protein)
chain: B2 chain with S159N
- turnover rate (kapp) [5]: 0.054 s⁻¹
- turnover rate (kapp), fold against wild-type TEVΔ [5]: 5.4- and 6.2-fold higher than wild-type

— patent US20230067225A1
